From patent publication US20030171565

System: protein zero related (PZR), tyrosine-phosphorylated
Sequence (chain, as listed by the source): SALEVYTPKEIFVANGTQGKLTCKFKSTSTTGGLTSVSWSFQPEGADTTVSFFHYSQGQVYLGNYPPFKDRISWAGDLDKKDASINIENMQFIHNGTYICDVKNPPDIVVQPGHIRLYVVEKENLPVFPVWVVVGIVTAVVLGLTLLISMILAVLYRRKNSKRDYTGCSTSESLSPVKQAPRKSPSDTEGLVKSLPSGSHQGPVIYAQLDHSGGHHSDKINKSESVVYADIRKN

tyrosine phosphatase SHP-1
dephosphorylation of purified p43 in vitro (anti-phosphotyrosine Western blot): SHP-1 only produced a partial dephosphorylation
